The supplement of paper PMC7877785
± gives the uncertainty stated by the source.

Assay: self-splicing fitness, log relative to wild type (ln ratio); higher = more splicing; Tetrahymena group I intron in knt gene, E. coli kanamycin selection, DiMSum; sequences stand for … in CUCUCU…GGAGGGAAAAGUUAUCAGGCAUGCACCUGGUAGCUAGUCUUUAAACCAAUAGAUUGCAUCGGUUUAAAAGGCAAGACCGUCAAAUUGCGGGAAAGGGGUCAACAGCCGUUCAGUACCAAGUCUCAGGGGAAACUUUGAGAUGGCCUUGCAAAGGGUAUGGUAAUAAGCUGACGGACAUGGUCCUAACCACGCAGCCAAGUCCUAAGUCAACAGAUCUUCUGUUGAUAUGGAUGCAGUUCACAGACUAAAUGUCGGUCGGGGAAGAUGUAUUCUUCUCAUAAGAUAUAGUCGGACCUCUCCUUAAUGGGAGCUAGCGGAUGAAGUGAUGCAACACUGGAGCCGCUGGGAACUAAUUUGUAUGCGAAAGUAUAUUGAUUAGUUUUGGAGUACUCGUGGUCG
In short: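 Fitness was computed with DiMSum as the error-weighted combination of replicate fold changes, kanamycin versus none, each normalised to wild type. The library randomised all eight intron nucleotides of the P1ex region, with the intron placed in the knt kanamycin-resistance gene on pET-22b(+) in E. coli BL21(DE3). Six replicate transformations were grown overnight at 37°C or 30°C on LB agar with or without 25 μg/mL kanamycin, plus 100 μg/mL carbenicillin, 50 μM IPTG and 0.2% rhamnose. Pooled colonies were amplicon-sequenced on an Illumina HiSeq 2500.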

Row | Sequence | self-splicing fitness (ln) (30 °C) | self-splicing fitness (ln) (37 °C)
1 | CGUCAGCAAUAUUACGGAGG | -1.93 ± 0.1 | -1.57 ± 0.16
2 | CGUCAGCAAUAUUACGGCAG | -0.866 ± 0.064 | -0.287 ± 0.077
3 | CGUCAGCAAUAUUACGGGCC | -1.25 ± 0.087 | -0.797 ± 0.11
4 | CGUCAGCAAUAUUACGGUUC | -3.67 ± 0.31 | -0.0181 ± 0.15
5 | CGUCAGCAAUAUUACGUAAC | -3.29 ± 0.35 | -2.29 ± 0.26
6 | CGUCAGCAAUAUUACGUUCU | -1.39 ± 0.098 | -0.462 ± 0.11
7 | CGUGAGCAAUAUUACGAAUA | -2.8 ± 0.28 | -2.87 ± 0.32
8 | CGUGAGCAAUAUUACGACAG | -0.792 ± 0.092 | -0.318 ± 0.1
9 | CGUGAGCAAUAUUACGACAU | -3.809 ± 0.03 | -2.19 ± 0.039
10 | CGUGAGCAAUAUUACGAGCG | -3.57 ± 0.3 | -2.52 ± 0.29
11 | CGUGAGCAAUAUUACGAGCU | -2.79 ± 0.17 | -2.99 ± 0.25
12 | CGUGAGCAAUAUUACGAUGG | -0.492 ± 0.1 | -0.139 ± 0.13
13 | CGUGAGCAAUAUUACGAUUA |  | -2.93 ± 0.25
14 | CGUGAGCAAUAUUACGCAAA |  | -1.84 ± 0.46
15 | CGUGAGCAAUAUUACGCGGC | -2.91 ± 0.24 | -3.19 ± 0.28
16 | CGUGAGCAAUAUUACGCGGG | -1.74 ± 0.25 | 
17 | CGUGAGCAAUAUUACGCUGU | -3.2 ± 0.26 | -2.43 ± 0.26
18 | CGUGAGCAAUAUUACGCUUG | -2.56 ± 0.11 | -2.07 ± 0.13
19 | CGUGAGCAAUAUUACGGAGC | -2.97 ± 0.36 | 
20 | CGUGAGCAAUAUUACGGAUG | -1.55 ± 0.075 | -0.983 ± 0.094
21 | CGUGAGCAAUAUUACGGCAA | -2.81 ± 0.2 | -1.43 ± 0.19
22 | CGUGAGCAAUAUUACGGCCU | -2.22 ± 0.23 | -3.57 ± 0.46
23 | CGUGAGCAAUAUUACGGUAC | -3.78 ± 0.35 | -1.63 ± 0.31
24 | CGUGAGCAAUAUUACGUAUG | -1.37 ± 0.11 | -0.0658 ± 0.12
25 | CGUGAGCAAUAUUACGUCAA | -2.01 ± 0.24 | -1.35 ± 0.2
26 | CGUGAGCAAUAUUACGUCGU |  | -2.72 ± 0.28

Row | Sequence | self-splicing fitness (ln) (30 °C) | self-splicing fitness (ln) (37 °C)
27 | CGUGAGCAAUAUUACGUCUC | -3.22 ± 0.21 | -2.29 ± 0.19
28 | CGUGAGCAAUAUUACGUGAA |  | -1.17 ± 0.22
29 | CGUGAGCAAUAUUACGUUAC | -3.96 ± 0.43 | 
30 | CGUUAGCAAUAUUACGAACA | -0.595 ± 0.16 | 0.0081 ± 0.16
31 | CGUUAGCAAUAUUACGAGCG | -3.69 ± 0.21 | -2.63 ± 0.21
32 | CGUUAGCAAUAUUACGAGGU | -4.3 ± 0.29 | -2.49 ± 0.23
33 | CGUUAGCAAUAUUACGAUCU | -1.14 ± 0.091 | -0.132 ± 0.12
34 | CGUUAGCAAUAUUACGCCAA | -1.97 ± 0.45 | 
35 | CGUUAGCAAUAUUACGCGUG | -1.3 ± 0.099 | -1.36 ± 0.089
36 | CGUUAGCAAUAUUACGGAUG | -1.85 ± 0.11 | -1.37 ± 0.14
37 | CGUUAGCAAUAUUACGGCAA | -2.91 ± 0.2 | -1.1 ± 0.15
38 | CGUUAGCAAUAUUACGGCGU | -3.75 ± 0.31 | -0.556 ± 0.19
39 | CGUUAGCAAUAUUACGGCUG | -0.2 ± 0.093 | -0.439 ± 0.12
40 | CGUUAGCAAUAUUACGGGGA |  | -2.28 ± 0.3
41 | CGUUAGCAAUAUUACGGGUC | -3.39 ± 0.41 | -2.01 ± 0.24
42 | CGUUAGCAAUAUUACGGUCA | -0.526 ± 0.14 | -0.197 ± 0.14
43 | CGUUAGCAAUAUUACGGUCC |  | -1.08 ± 0.48
44 | CGUUAGCAAUAUUACGGUUU | -3.84 ± 0.34 | -2.44 ± 0.21
45 | CGUUAGCAAUAUUACGUAAG | -0.652 ± 0.1 | -0.0337 ± 0.14
46 | CGUUAGCAAUAUUACGUAUA | -2.85 ± 0.28 | -2.49 ± 0.31
47 | CGUUAGCAAUAUUACGUAUG | -2.12 ± 0.097 | -0.357 ± 0.097
48 | CGUUAGCAAUAUUACGUCUG | -0.914 ± 0.11 | 0.164 ± 0.13
49 | CGUUAGCAAUAUUACGUGCU | -2.71 ± 0.2 | -1.64 ± 0.21
50 | CGUUAGCAAUAUUACGUUAG | -0.796 ± 0.081 | -0.539 ± 0.1
51 | CUAAAGCAAUAUUACGAAAC | -3.29 ± 0.45 | -2.67 ± 0.41
